Measurements from the domain aggregation screens of Martell et al. (2025).

Assay: soluble fraction after stress (log2 fold change); higher = more stays soluble; pooled small domains, quantitative proteomics
Conditions: stress: 75 degC
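Further: 20 min heating vs room temperature control held 20 min.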

Point of comparison: “HMPTEPTARELEVTTLLAQGLSNREIAGALFISEHTVRNHLGHVFSKLGVSSRTQAVVRAGQLGWLR”, “soluble fraction (log2)” value -2.54. Against it:
- HMPSEDELAERLRGAIRQGDILNEGRMPPERALAEHFGVSRARLRLALGLLQEDGTIYRRHGQGTFAT — higher, -0.308
- HMPSIGKNILYYRKKRNMTIDELSKKSGVSKSMLSQVEQEKTNPTVVTVWKIARSLDVSINQLLQT — lower, -2.83
- HMPSKKHARWIELEARKFMADNEDAVSDLHELRTRAANFAALKTSTLPVDQHRAIVAGFVARVNELGRRI — higher, -1.02
- HMPSLSPDETVVVDALRQQNDMQINMISVKTNLPIARLSAILFEMELKGVLKPLAGGVYHLL — higher, -2.3
- HMPSPEMLKETEKRKAEEIYRSQINLFIDDYHRLKGQYPLLEDIIDNKKDSIPIEILREISISILKNYFE — higher, -0.802
- HMPSPEVELLEDLLSKTDEAEVEAAFHENQALVNDEFKAMLGSLIQELSKTQEADPEIIARIRFIQKLT — higher, -0.128
- HMPSREDFAYDSIKEAILSGELLPNQKISLSDLANKLGISIIPVNSAVGRLVAEGLVRQDPHHSPYVV — higher, 0.481
- HMPSRPIQVASFSKEDNAKRAAEALAKIGVTATPQKSEKAGKAVWGVVVTGDDAMLQKIKDAGFADAYFL — higher, 0.0515
- HMPSTKDGIKEFLSSGAMKGIGRKTASAIVSRFGIDTLKIIEQEPQRLTEVSGIGKKTAQRIAEAFGKH — higher, -0.26
- HMPSTVRVPDVAETSLSEAKKTIEESGLEVGAIHKVNNDTVKKNHVIKTSPTIGSAKKEGSAIDIYVSKG — higher, -0.0483
- HMPSTVSVPDVAGSSLSEAKTTIKSSGLKVGTVHKVSSDTVESGYVIKTSPTAGSSKKEGSSIDIYVSKG — higher, ≥ 1.04
- HMPTANFPAMAEALKKQYGPPTGEEETSWTHRLGGVFDIKIQSWNTPQGEMVLRSRGAAMDAGML — higher, 0.385
- HMPTKSDLLQWIKDRASKMGGAFTNSGAYALADAGVDGPRALSSEINKLLTYVNWERSVEADDVIRL — higher, -0.455
- HMPTLTPFDVARIENAINPRLNLETAAKLKPWIAAGYTAQETADGTGFSPDTVKKYAAIFRK — higher, -0.0357
- HMPTQTEELRRRIVADVNAGEPGAKLGSERELAERYGTSRSSLRQVLAALQEAGLIDRVIGRSGGIFISH — higher, -0.0502
- HMPTSILEKILNSAAEQFTRYGFKTITMDDIARHAGVSKKTLYQHFETKLDIIVAAVTHFHTMKF — higher, -1.62
- HMPTYEEAKTYLKAAFEHIVAAGRDVGELVEFAFAKSGDAVAPYLRRFLSDVHEGRITIQGLTESAKLAV — higher, 0.292
- HMPVEQVWHIAEAGKTKGPFSRASMGRMSADGALTRDTLVWTAGQDGWKKAADVTALATLFT — higher, 0.0108
- HMPVFYATNRQKTTIHNLKRKKGLDDDAYRATIYSFTHGRTDSSKYMYKYEAAELIQKWLDPE — higher, -1.49
- HMPVGVPGVVYNTDSLNVRKGAGTNYDIVSKLKRGSVIEVLEQTAVDGTVWGRIAEGWVNMEYVSL — higher, -1.04
- HMPVSDLQSALRNTLSKGDATDPAFRQRVYRAAMDALERATGSESDPQRRSEQKQRLIAVIRDMEASYRR — higher, 0.157
- HMPVTKSARQSRIGELIAREPVRSQSELAARLADDGIVVSQGTLSKDLLELGAVRVRTSSGELAYALL — higher, 0.0547
- HMPWLIAVTVDGVNLPRFLRRAGEMGLLLTGVRIRGKHLSAFAREDDVPPLRMMAENGGWRFSVGN — higher, -2.23
- HMPYEHQRAVGALIRRLREQQGWSQRALADWVHMDQSAVSRVETGQRSVTAEELGRFADALHVSTDALVR — higher, -0.263
- HMPYFLKQSNTRSKGLYLQIYHSFYVPGKGSRNKSYKAIGYVSELIKNGIEDPITYAKNLVDELNNNSSTP — lower, -3.82
- HMPYPSPADLARMDELIAWVKDEGRLPRDRSGQRSERSMARWLAARRREAAEGTLDPAYRDGLAQVPGWR — higher, -0.497
- HMPYSAAVTFLDDAKQPMVNYNYRLIAENGIEVSGITDEFGKTQPIQTDQREKVDLYIADLPN — higher, 0.693
- HMQAALEVQASAGVLAPVPPDQRQALLDTLAQDPRPGYQHEAGRVYGFPFGGFEVRFTVSDGLLTVLSAYK — higher, -1.82
- HMQAATQVNIVGLFSNKAVVIINGGKPKTLSVGQTSEGVKLLAADSQTATLQIEGKTQQLGMGQAASVGG — higher, -0.758
- HMQAESLTVVRSAELKADRFLDAATLQTLQTGQVVESLRTESGWVQVRIAGQQGWVRAMNVKGA — higher, -1.1
- HMQAITVNNEGKIFLNTIPVTLEELSSKLESLKSSTPEFPVVIRGDSGSQYQGIMDVLNVVGRLGITQIGL — higher, -0.708
- HMQAKDVEVPDYVGKSFVSIKENNPNDFKFEVKSEYDESKEMGVILDQEPKGGSMKVKSGSTITVTV — higher, 0.156
- HMQASPADLLSDRELEVFQLTGEWKTTRQIAQELHLSVKTIEYYREQIKRKLNLKSAAELTQHATAWVQRG — lower, -2.93
- HMQDAVASEKIQLMSEALHARDTGDLLLAKEKVEKLIALAPNDKNIQALLLTINQSIEDKGL — higher, -0.112
- HMQDIDIVDLKRISELIYQKYNYDFRNYAMSSFKRRVQRIIELKKLTVDGLIKRLNDTPSFINEFLDELTV — higher, -0.014
- HMQDNLKKYMDKLSQRDAELIVYKYLWNMSEKEISEMFHIKQEQVHVYVGRAKKRLFKIIKKEME — higher, -0.425
- HMQDRDKNIEEGRQLVLHEMDRLDLVDEPLHDVARQLNMKAVEDMFAAVGAGDLRLGQIIHQLLKQADTN — higher, -0.215
